In patent publication US10864269B2, “Therapeutic combinations comprising anti-CD73 antibodies and uses thereof” (MedImmune Limited, priority 2014, dated 2020):
Numbering of substitutions follows the chain as printed. Blank lines part the entries; values can stand above or below the molecule they belong to.

Experiments:
[1] = target: T1, native CD73, MDA-MB-231 cells (Homo sapiens, UniProt P21589); assay: Flow cytometry binding to native CD73, MDA-MB-231 cells; details: as measured by flow cytometry; read-out: KD, CD73 on the surface of MB-MDA-231 cells
T1 construct: native CD73 expressed on human, murine, and cynomolgus monkey cell lines; endogenous in cells; host or cells: MDA-MB-231
T1 sequence (P21589 27-549): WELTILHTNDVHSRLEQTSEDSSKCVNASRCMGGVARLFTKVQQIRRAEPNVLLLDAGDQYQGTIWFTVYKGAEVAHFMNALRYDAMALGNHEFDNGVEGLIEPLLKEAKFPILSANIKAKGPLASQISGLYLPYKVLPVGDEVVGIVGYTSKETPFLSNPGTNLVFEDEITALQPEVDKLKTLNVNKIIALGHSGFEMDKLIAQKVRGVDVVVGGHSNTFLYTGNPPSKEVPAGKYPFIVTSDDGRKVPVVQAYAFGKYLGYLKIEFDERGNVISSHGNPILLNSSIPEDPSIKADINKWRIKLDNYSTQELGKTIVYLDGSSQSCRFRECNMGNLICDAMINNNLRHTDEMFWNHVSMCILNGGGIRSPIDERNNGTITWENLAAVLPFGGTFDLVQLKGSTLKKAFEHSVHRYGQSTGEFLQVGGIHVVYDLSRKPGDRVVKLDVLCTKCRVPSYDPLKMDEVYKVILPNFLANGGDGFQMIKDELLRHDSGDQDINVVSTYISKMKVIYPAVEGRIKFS
Procedure: (§1) Binding of MEDI9447 to native CD73 expressed on human, murine, and cynomolgus monkey cell lines was characterized by flow cytometry. The cells were incubated with various concentrations of MEDI9447 and antibody binding was monitored with and fluorophore-labeled anti-human Fc antibody. A plot of the median fluorescence intensity as a function of the MEDI9447 concentration was fitted nonlinearly using a one-site binding isotherm model to calculate the equilibrium dissociation constant.
(§2) The affinity of enhanced anti-CD73 antibodies (in IgG1-TM format) to human, murine, and cynomolgus CD73 was determined by flow cytometry and surface plasmon resonsance (SPR) (Table 13). The enhanced antibodies had pM affinity to cellular and recombinant CD73 from the three species.
(§3) All flow cytometry experiments were run at 4C and reagents were prepared in PBS/1% FBS buffer. 10,000 cells were incubated with test antibody in 50 uL volume for 4 hours. Cells were washed twice and incubated in 50 uL goat anti-human IgGFc-AlexaFluor647 conjugate for 15 minutes. Cells were washed, resuspended in buffer supplemented with Dapi, and analyzed on a flow cytometer. […] For the determination of KD values, a plot of the median fluorescence intensity as a function of test antibody concentration was fitted nonlinearly using a one site binding isotherm model.

[2] = tested on: native CD73, MK-1 cells; assay: Flow cytometry binding to native CD73, MK-1 cells; details: as measured by flow cytometry; read-out: KD, CD73 on the surface of cynomolgus MK-1 cells
Procedure: as §1, §2, §3

[3] = target: T2, huCD73 (Homo sapiens, UniProt P21589); assay: Solution binding, human CD73; details: as measured by solution binding
T2 sequence (P21589 27-549): T1 sequence (P21589 27-549)

[4] = target: T3, murine CD73 (Mus musculus, UniProt Q61503); assay: Solution binding, murine CD73; details: as measured by solution binding
T3 sequence (Q61503 29-551): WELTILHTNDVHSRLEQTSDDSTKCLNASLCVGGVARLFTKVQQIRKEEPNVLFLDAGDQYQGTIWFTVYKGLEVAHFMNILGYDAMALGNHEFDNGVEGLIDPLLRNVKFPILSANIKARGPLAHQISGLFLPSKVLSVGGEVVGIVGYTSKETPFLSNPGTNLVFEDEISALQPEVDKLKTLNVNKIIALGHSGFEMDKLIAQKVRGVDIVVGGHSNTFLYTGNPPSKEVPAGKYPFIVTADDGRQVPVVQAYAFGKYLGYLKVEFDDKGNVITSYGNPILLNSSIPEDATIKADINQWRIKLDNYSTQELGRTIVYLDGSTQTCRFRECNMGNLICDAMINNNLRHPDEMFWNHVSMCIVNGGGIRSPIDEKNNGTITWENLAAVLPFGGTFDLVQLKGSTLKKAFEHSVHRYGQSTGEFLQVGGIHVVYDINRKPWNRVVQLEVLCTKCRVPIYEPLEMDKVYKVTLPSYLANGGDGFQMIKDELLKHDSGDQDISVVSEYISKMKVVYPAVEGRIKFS

[5] = target: cynomolgus CD73; assay: Solution binding, cynomolgus CD73; details: as measured by solution binding
[6] = target: T2, huCD73; assay: ELISA binding of Fab variants to human CD73; details: combinatorial Fab library clones, capture ELISA and direct ELISA
Excerpt: (§4) CD730010GL9 IgG1-TM was enhanced by screening Fab libraries comprising variant CDR sequences with single amino acid mutations. Each of the 61 positions in the six CDRs was individually randomized to 19 amino acids (all natural amino acids except Cysteine), generating a library with a theoretical diversity of 1159 unique clones (19 amino acids per position times 61 positions). Bacterial Fab fragments were produced from 4224 clones of the library and screened for binding to human and murine CD73 protein by capture ELISA (Assay 2). 180 clones with increased binding signal compared to parental CD730010 GL9 IgG1-TM were selected and the mutations in the VH or VL domain were identified by DNA sequencing. The Fab concentration in the bacterial supernatants was normalized and the binding of the normalized supernatants to human and murine CD73 protein was evaluated by direct ELISA (Assay 1). Table 11 lists selected beneficial single amino acid substitutions and their effect on binding to recombinant CD73 protein.
(§5) To further improve the affinity of the anti-CD73 antibody, several single amino acid changes which improved binding when compared to parental CD730010 GL9 were combined to create a combinatorial Fab library (Assay 4). Fab fragments of 4224 clones of the combinatorial library were produced in E. coli and screened for binding to human and murine CD73 protein by capture ELISA. […]
(§6) 384-well ELISA plates were coated with about 1.5 ng/well recombinant CD73 protein, blocked with 1% BSA/0.1% Tween20/PBS and incubating with antibody samples for 90 minutes at room temperature. […] HRP activity was detected with tetra methyl benzidine (TMB) substrate and the reaction was stopped with 1 M HCl. Plates were read at 450 nm.
as §6, with “3” for “1.5”, “sheep-anti-human Fd antibody (for screening antibodies in Fab format),” for “recombinant CD73 protein,”, “with” for “with antibody”

[7] = target: T4, muCD73 (Mus musculus, UniProt Q61503); assay: ELISA binding of Fab variants to murine CD73; details: combinatorial Fab library clones, capture ELISA and direct ELISA
T4 sequence (Q61503 29-551): T3 sequence (Q61503 29-551)
Excerpt: as §4, §5, §6
as §6, with “3” for “1.5”, “sheep-anti-human Fd antibody (for screening antibodies in Fab format),” for “recombinant CD73 protein,”, “with” for “with antibody”

Kd [1]: ~0.08 nM
Kd [3]: ~0.08 nM
Kd [4]: ~1.5 nM
Kd [5]: ~0.1 nM
B1: CD730002 2C5: IgG1 with CD730002-derived VL of SEQ ID NO: 88 and VH of SEQ ID NO: 87 (antibody, V domains shown)
VH: EVQLLESGGGLVQPGGSLRLSCAASGFTFSSYAMSWVRQAPGKGLEWVSAISGSGGSTYYADSVKRRFTISRDNSKNTLYLQMNSLRAEDTAVYYCARDKGYYWYMDVWGQGTMVTVSS
VL: QSVLTQPPSVSVSPGQTASITCSGDKVGDKYASWYQQKPGQSPVLVIYEDTKRLSGIPERFSGSNSGNTATLTISGTQAMDEADYYCQAWDTSFWVFGGGTKLTVL
Kd [2]: ~0.06 nM

binding to human CD73 [6]: strong binding
binding to murine CD73 [7]: strong binding
B2: C2: combinatorial library clone of CD730010 GL9; VL SEQ ID NO: 61, VH SEQ ID NO: 75 (antibody, V domains shown)
VH: EVQLLESGGGLVQPGGSLRLSCAASGFTFSSYAYSWVRQAPGKGLEWVSLIWGSWGSTYYADSVKGRFTISRDNSKNTLYLQMNSLRAEDTAVYYCARLGYSTIDMWGRGTLVTVSS
VL: QSVLTQPPSASGTPGQRVTISCSGSLSNIGRNPVNWYQQLPGTAPKLLIYLDNLRLGGVPDRFSGSKSGTSASLAISGLQSEDEADYYCATWDDSLKGWLFGGGTKLTVL

binding to human CD73 [6]: strong binding
binding to murine CD73 [7]: strong binding
B3: G10: combinatorial library clone of CD730010 GL9; VL SEQ ID NO: 63, VH SEQ ID NO: 77 (antibody, V domains shown)
VH: B2 VH with L50A, W52S, S57R, M106L
VL: B2 VL with P33D, D52N, L54Q

binding to human CD73 [6]: strong binding
binding to murine CD73 [7]: strong binding
B4: D3: combinatorial library clone of CD730010 GL9; VL SEQ ID NO: 62, VH SEQ ID NO: 76 (antibody, V domains shown)
VH: B2 VH with L50A, W52S, W55G, S57R, M106L
VL: B2 VL with G57S, K97I
